Experimental data: doi:10.1101/2021.05.06.442885

Biological target: human Xkr8 (hXkr8), from hXkr8-TH-mGFP after TEV cleavage (human) (UniProt Q9H6D3)
Experiment: cryo-EM structure

Chain of UniProt Q9H6D3 (Q9H6D3 whole entry): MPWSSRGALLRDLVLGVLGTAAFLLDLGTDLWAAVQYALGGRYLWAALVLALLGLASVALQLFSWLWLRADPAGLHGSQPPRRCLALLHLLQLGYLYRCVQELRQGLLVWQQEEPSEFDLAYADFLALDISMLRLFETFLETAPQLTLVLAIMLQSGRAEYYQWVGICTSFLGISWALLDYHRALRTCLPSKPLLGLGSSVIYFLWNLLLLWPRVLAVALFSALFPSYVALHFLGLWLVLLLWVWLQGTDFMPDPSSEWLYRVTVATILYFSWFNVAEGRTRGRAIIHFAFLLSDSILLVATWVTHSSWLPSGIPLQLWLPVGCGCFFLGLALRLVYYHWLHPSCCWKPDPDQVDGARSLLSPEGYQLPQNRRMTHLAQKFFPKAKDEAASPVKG

- stoichiometry N: 1
Substance: hBSGΔ (human basigin lacking Ig-like domain 1, N152Q/N186Q, C-terminal FLAG) (domain or fragment)
